Columns and labels:
C3b (purified) = C3b (purified) (UniProt P01024); experiment: cell-based or functional assay
[1] = molecular target: C3 convertase (C3bBb) (human) (UniProt P01024); experiment: cell-based or functional assay
Sequence of C3 convertase (C3bBb) (human) (P01024 749-1663, chain 1 of 2): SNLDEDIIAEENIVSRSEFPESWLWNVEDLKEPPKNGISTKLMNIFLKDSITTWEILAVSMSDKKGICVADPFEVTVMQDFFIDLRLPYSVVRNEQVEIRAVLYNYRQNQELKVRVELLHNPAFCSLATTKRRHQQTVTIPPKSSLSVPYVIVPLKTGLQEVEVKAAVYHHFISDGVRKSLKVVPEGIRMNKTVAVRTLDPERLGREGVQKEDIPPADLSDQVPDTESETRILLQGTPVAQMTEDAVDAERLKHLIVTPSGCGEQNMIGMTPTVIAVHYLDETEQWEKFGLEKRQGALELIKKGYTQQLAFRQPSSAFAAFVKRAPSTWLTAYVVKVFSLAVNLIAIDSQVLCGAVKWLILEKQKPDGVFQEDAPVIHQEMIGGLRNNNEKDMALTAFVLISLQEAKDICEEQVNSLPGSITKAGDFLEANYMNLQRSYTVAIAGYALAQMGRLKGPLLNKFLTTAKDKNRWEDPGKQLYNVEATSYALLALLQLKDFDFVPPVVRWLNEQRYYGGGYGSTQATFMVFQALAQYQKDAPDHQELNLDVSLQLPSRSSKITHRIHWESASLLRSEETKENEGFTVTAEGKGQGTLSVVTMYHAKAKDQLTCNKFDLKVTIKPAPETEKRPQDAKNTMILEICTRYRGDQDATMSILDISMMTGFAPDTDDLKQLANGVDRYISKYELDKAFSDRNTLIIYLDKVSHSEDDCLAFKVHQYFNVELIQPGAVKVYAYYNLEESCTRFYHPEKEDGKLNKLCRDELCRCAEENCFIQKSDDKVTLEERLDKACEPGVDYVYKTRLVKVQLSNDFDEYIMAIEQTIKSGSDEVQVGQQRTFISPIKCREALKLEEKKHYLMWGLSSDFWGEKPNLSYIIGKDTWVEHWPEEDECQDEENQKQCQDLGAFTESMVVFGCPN
Sequence of C3 convertase (C3bBb) (human) (P00751 260-764, chain 2 of 2, further chain): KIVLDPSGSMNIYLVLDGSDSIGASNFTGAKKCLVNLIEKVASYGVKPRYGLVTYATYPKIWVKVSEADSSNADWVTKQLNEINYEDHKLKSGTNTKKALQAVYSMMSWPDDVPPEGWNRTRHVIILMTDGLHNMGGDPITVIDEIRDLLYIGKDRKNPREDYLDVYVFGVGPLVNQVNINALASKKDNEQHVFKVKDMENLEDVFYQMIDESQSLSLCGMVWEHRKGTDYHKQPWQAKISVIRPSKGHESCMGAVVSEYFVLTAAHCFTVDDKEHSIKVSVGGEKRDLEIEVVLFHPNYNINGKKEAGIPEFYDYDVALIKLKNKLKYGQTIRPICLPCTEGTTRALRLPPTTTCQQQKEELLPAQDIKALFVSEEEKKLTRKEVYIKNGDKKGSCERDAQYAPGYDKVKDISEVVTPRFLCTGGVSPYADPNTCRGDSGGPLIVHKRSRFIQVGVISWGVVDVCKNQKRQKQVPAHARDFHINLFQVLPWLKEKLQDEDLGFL

Sequence of C3b (purified) (P01024 749-1663, chain 1 of 2): as the sequence (P01024 749-1663, chain 1 of 2) above
Sequence of C3b (purified) (P01024 23-667, chain 2 of 2): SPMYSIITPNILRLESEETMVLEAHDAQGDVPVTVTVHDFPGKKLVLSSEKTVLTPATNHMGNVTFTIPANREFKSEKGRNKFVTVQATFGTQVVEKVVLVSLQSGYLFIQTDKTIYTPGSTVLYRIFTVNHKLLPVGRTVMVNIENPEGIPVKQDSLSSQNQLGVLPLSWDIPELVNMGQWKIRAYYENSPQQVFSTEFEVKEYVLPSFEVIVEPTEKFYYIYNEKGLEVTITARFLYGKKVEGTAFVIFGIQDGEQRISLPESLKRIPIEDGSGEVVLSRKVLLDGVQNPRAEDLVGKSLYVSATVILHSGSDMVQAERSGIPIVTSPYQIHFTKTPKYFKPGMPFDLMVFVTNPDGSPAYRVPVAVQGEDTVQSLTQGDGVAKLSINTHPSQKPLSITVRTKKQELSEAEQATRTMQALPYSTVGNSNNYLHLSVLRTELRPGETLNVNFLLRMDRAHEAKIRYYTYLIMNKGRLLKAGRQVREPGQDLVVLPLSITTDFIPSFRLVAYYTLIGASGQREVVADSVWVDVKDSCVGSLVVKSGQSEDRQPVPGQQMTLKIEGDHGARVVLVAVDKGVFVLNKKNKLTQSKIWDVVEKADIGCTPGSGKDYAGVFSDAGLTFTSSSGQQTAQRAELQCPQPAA

F1 cofactor (%) (C3b (purified)) | Anti-C3 convertase (EC50 µg/ml) [1] [µg/mL] | Substance
100 |  | FH fragment "1NT7" (SCR 1 to 7 of human factor H) (from UniProt P08603 19-447)
100 |  | FH fragment "1NT18" (SCR 1 to 18 of human factor H) (from UniProt P08603 19-1102)
0 |  | FH fragment "7CT18" (SCR 7 to 18 of human factor H) (from UniProt P08603 389-1102)
0 |  | FH fragment "7CT20" (SCR 7 to 20 of human factor H) (from UniProt P08603 389-1231)
0 |  | FH fragment "8CT20" (SCR 8 to 20 of human factor H) (from UniProt P08603 448-1231)
100 |  | FH fragment "SCR1-4" (SCR 1 to 4 of human factor H)
100 | 0.093 | FH fragment "SCR1-6" (SCR 1 to 6 of human factor H) (from UniProt P08603 19-388)
0 |  | FH fragment "SCR6-8" (SCR 6 to 8 of human factor H)

Reference: patent US20190388506A1
